In patent US20240132624A1 (Ablynx, published 2024):

What follows are binders tested against T1, human FcRn/b2M (human, UniProt P61769 21-119, biotinylated) (assay: SPR pH 6.0).
T1 construct: bought recombinant biotinylated protein (ACRO FCM-H82W4 or Immunitrack ITF01); also called hFcRn; hFcRn/hb2M

Row | koff [s⁻¹] | Binder
1 | 0.013 | T026301074 (VHH, name in Kabat numbering, tagless) VHH: EVQLVESGGGVVQPGGSLRLSCAASTFTFSEYAMYWVRQAPGKGLEWVSAISSGGGSTDYADSVKGRFTISRDNSKNTLYLQMNSLRPEDTALYYCAADTLYTDLTWYSYWGQGTLVTVSS
2 | 0.041 | T026301054 (VHH, name in Kabat numbering, tagless) VHH: EVQLVESGGGVVQPGGSLRLSCAASTFTFSEYAMYWVRQAPGKGLEWVSAISQGGGSTDYADSVKGRFTISRDNSKNTLYLQMNSLRPEDTALYYCAADTLYTDLTWYSYWGQGTLVTVSS
3 | 0.0093 | T026301088 (VHH, name in Kabat numbering, tagless) VHH: EVQLVESGGGVVQPGGSLRLSCAASGFTFSSYDMYWVRQAPGKGLEWVSAISSGGGSTDYADSVKGRFTISRDNSKNTLYLQMNSLRPEDTALYYCAADTLYTSLTKYSYWGQGTLVTVSS
4 | 0.033 | T026301090 (VHH, name in Kabat numbering, tagless) VHH: EVQLVESGGGVVQPGGSLRLSCAASTFTFSSYAMYWVRQAPGKGLEWVSAISQGGGSTDYADSVKGRFTISRDNSKNTLYLQMNSLRPEDTALYYCAADTLYTSLTKYSYWGQGTLVTVSS
5 | 0.034 | T026301096 (VHH, name in Kabat numbering, tagless) VHH: EVQLVESGGGVVQPGGSLRLSCAASGFTFSSYAMYWVRQAPGKGLEWVSAISQGGGSTDYADSVKGRFTISRDNSKNTLYLQMNSLRPEDTALYYCAADTLYTDLTSYSYWGQGTLVTVSS
6 | 0.0082 | T026301125 (VHH, name in Kabat numbering, tagless) VHH: EVQLVESGGGVVQPGGSLRLSCAASGFTFSEYAMYWVRQAPGKGLEWVSAISSGGGSTDYADSVKGRFTISRDNSKNTLYLQMNSLRPEDTALYYCAADTLYTSLTKYSYWGQGTLVTVSS
7 | 0.059 | T026301124 (VHH, name in Kabat numbering, tagless) VHH: EVQLVESGGGVVQPGGSLRLSCAASTFTFSEYAMYWVRQAPGKGLEWVSAISQGGGSTDYADSVKGRFTISRDNSKNTLYLQMNSLRPEDTALYYCAADTLYTSLTKYSYWGQGTLVTVSS
8 | 0.032 | T026301128 (VHH, name in Kabat numbering, tagless) VHH: EVQLVESGGGVVQPGGSLRLSCAASGFTFSSYAMYWVRQAPGKGLEWVSAISQGGGSTDYADSVKGRFTISRDNSKNTLYLQMNSLRPEDTALYYCAADTLYTDLTKYSYWGQGTLVTVSS
9 | 0.0018 | T026301121 (VHH, name in Kabat numbering, tagless) VHH: EVQLVESGGGVVQPGGSLRLSCAASTFTFSEYDMYWVRQAPGKGLEWVSAISQGGGSTDYADSVKGRFTISRDNSKNTLYLQMNSLRPEDTALYYCAADTLYTSLTWYSYWGQGTLVTVSS
10 | 0.054 | T026301082 (VHH, name in Kabat numbering, tagless) VHH: EVQLVESGGGVVQPGGSLRLSCAASTFTFSSYAMYWVRQAPGKGLEWVSAISSGGGSTDYADSVKGRFTISRDNSKNTLYLQMNSLRPEDTALYYCAADTLYTDLTSYSYWGQGTLVTVSS
11 | 0.0067 | T026301097 (VHH, name in Kabat numbering, tagless) VHH: EVQLVESGGGVVQPGGSLRLSCAASTFTFSEYAMYWVRQAPGKGLEWVSAISQGGGSTDYADSVKGRFTISRDNSKNTLYLQMNSLRPEDTALYYCAADTLYTSLTWYSYWGQGTLVTVSS
12 | 0.0045 | T026301107 (VHH, name in Kabat numbering, tagless) VHH: EVQLVESGGGVVQPGGSLRLSCAASTFTFSSYDMYWVRQAPGKGLEWVSAISQGGGSTDYADSVKGRFTISRDNSKNTLYLQMNSLRPEDTALYYCAADTLYTSLTSYSYWGQGTLVTVSS
13 | 0.01 | T026301094 (VHH, name in Kabat numbering, tagless) VHH: EVQLVESGGGVVQPGGSLRLSCAASTFTFSEYDMYWVRQAPGKGLEWVSAISQGGGSTDYADSVKGRFTISRDNSKNTLYLQMNSLRPEDTALYYCAADTLYTSLTSYSYWGQGTLVTVSS
14 | 0.028 | T026301089 (VHH, name in Kabat numbering, tagless) VHH: EVQLVESGGGVVQPGGSLRLSCAASGFTFSSYAMYWVRQAPGKGLEWVSAISSGGGSTDYADSVKGRFTISRDNSKNTLYLQMNSLRPEDTALYYCAADTLYTDLTKYSYWGQGTLVTVSS
15 | 0.0095 | T026301127 (VHH, name in Kabat numbering, tagless) VHH: EVQLVESGGGVVQPGGSLRLSCAASTFTFSEYDMYWVRQAPGKGLEWVSAISSGGGSTDYADSVKGRFTISRDNSKNTLYLQMNSLRPEDTALYYCAADTLYTSLTSYSYWGQGTLVTVSS
16 | 0.0013 | T026301109 (VHH, name in Kabat numbering, tagless) VHH: EVQLVESGGGVVQPGGSLRLSCAASTFTFSSYDMYWVRQAPGKGLEWVSAISQGGGSTDYADSVKGRFTISRDNSKNTLYLQMNSLRPEDTALYYCAADTLYTSLTWYSYWGQGTLVTVSS

Row | koff [s⁻¹] | Binder
17 | 0.014 | T026301110 (VHH, name in Kabat numbering, tagless) VHH: EVQLVESGGGVVQPGGSLRLSCAASGFTFSEYAMYWVRQAPGKGLEWVSAISQGGGSTDYADSVKGRFTISRDNSKNTLYLQMNSLRPEDTALYYCAADTLYTDLTWYSYWGQGTLVTVSS
18 | 0.034 | T026301060 (VHH, name in Kabat numbering, tagless) VHH: EVQLVESGGGVVQPGGSLRLSCAASGFTFSEYAMYWVRQAPGKGLEWVSAISSGGGSTDYADSVKGRFTISRDNSKNTLYLQMNSLRPEDTALYYCAADTLYTDLTSYSYWGQGTLVTVSS
19 | 0.049 | T026301071 (VHH, name in Kabat numbering, tagless) VHH: EVQLVESGGGVVQPGGSLRLSCAASTFTFSEYAMYWVRQAPGKGLEWVSAISSGGGSTDYADSVKGRFTISRDNSKNTLYLQMNSLRPEDTALYYCAADTLYTDLTSYSYWGQGTLVTVSS
20 | 0.021 | T026301113 (VHH, name in Kabat numbering, tagless) VHH: EVQLVESGGGVVQPGGSLRLSCAASGFTFSEYAMYWVRQAPGKGLEWVSAISQGGGSTDYADSVKGRFTISRDNSKNTLYLQMNSLRPEDTALYYCAADTLYTSLTKYSYWGQGTLVTVSS
21 | 0.0066 | T026301085 (VHH, name in Kabat numbering, tagless) VHH: EVQLVESGGGVVQPGGSLRLSCAASGFTFSSYAMYWVRQAPGKGLEWVSAISQGGGSTDYADSVKGRFTISRDNSKNTLYLQMNSLRPEDTALYYCAADTLYTDLTWYSYWGQGTLVTVSS
22 | 0.067 | T026301083 (VHH, name in Kabat numbering, tagless) VHH: EVQLVESGGGVVQPGGSLRLSCAASGFTFSEYAMYWVRQAPGKGLEWVSAISQGGGSTDYADSVKGRFTISRDNSKNTLYLQMNSLRPEDTALYYCAADTLYTDLTSYSYWGQGTLVTVSS
23 | 0.015 | T026301072 (VHH, name in Kabat numbering, tagless) VHH: EVQLVESGGGVVQPGGSLRLSCAASGFTFSSYDMYWVRQAPGKGLEWVSAISQGGGSTDYADSVKGRFTISRDNSKNTLYLQMNSLRPEDTALYYCAADTLYTDLTSYSYWGQGTLVTVSS
24 | 0.0095 | T026301078 (VHH, name in Kabat numbering, tagless) VHH: EVQLVESGGGVVQPGGSLRLSCAASGFTFSEYDMYWVRQAPGKGLEWVSAISQGGGSTDYADSVKGRFTISRDNSKNTLYLQMNSLRPEDTALYYCAADTLYTDLTWYSYWGQGTLVTVSS
25 | 0.0061 | T026301067 (VHH, name in Kabat numbering, tagless) VHH: EVQLVESGGGVVQPGGSLRLSCAASTFTFSSYDMYWVRQAPGKGLEWVSAISQGGGSTDYADSVKGRFTISRDNSKNTLYLQMNSLRPEDTALYYCAADTLYTSLTKYSYWGQGTLVTVSS
26 | 0.013 | T026301086 (VHH, name in Kabat numbering, tagless) VHH: EVQLVESGGGVVQPGGSLRLSCAASGFTFSEYDMYWVRQAPGKGLEWVSAISSGGGSTDYADSVKGRFTISRDNSKNTLYLQMNSLRPEDTALYYCAADTLYTDLTWYSYWGQGTLVTVSS
27 | 0.0072 | T026301112 (VHH, name in Kabat numbering, tagless) VHH: EVQLVESGGGVVQPGGSLRLSCAASGFTFSEYDMYWVRQAPGKGLEWVSAISQGGGSTDYADSVKGRFTISRDNSKNTLYLQMNSLRPEDTALYYCAADTLYTSLTKYSYWGQGTLVTVSS
28 | 0.0088 | T026301081 (VHH, name in Kabat numbering, tagless) VHH: EVQLVESGGGVVQPGGSLRLSCAASTFTFSSYAMYWVRQAPGKGLEWVSAISSGGGSTDYADSVKGRFTISRDNSKNTLYLQMNSLRPEDTALYYCAADTLYTSLTSYSYWGQGTLVTVSS
29 | 0.01 | T026301126 (VHH, name in Kabat numbering, tagless) VHH: EVQLVESGGGVVQPGGSLRLSCAASTFTFSSYAMYWVRQAPGKGLEWVSAISSGGGSTDYADSVKGRFTISRDNSKNTLYLQMNSLRPEDTALYYCAADTLYTSLTKYSYWGQGTLVTVSS
30 | 0.0054 | T026301123 (VHH, name in Kabat numbering, tagless) VHH: EVQLVESGGGVVQPGGSLRLSCAASTFTFSSYDMYWVRQAPGKGLEWVSAISSGGGSTDYADSVKGRFTISRDNSKNTLYLQMNSLRPEDTALYYCAADTLYTSLTWYSYWGQGTLVTVSS
31 | 0.021 | T026301084 (VHH, name in Kabat numbering, tagless) VHH: EVQLVESGGGVVQPGGSLRLSCAASGFTFSSYAMYWVRQAPGKGLEWVSAISSGGGSTDYADSVKGRFTISRDNSKNTLYLQMNSLRPEDTALYYCAADTLYTDLTSYSYWGQGTLVTVSS
32 | 0.039 | T026301059 (VHH, name in Kabat numbering, tagless) VHH: EVQLVESGGGVVQPGGSLRLSCAASGFTFSEYDMYWVRQAPGKGLEWVSAISQGGGSTDYADSVKGRFTISRDNSKNTLYLQMNSLRPEDTALYYCAADTLYTDLTSYSYWGQGTLVTVSS

Each binder was assayed against T1, human FcRn/b2M (assay: SPR off-rate pH 6.0).

Row | binding result | Binder
33 | no binding | T026301049 (VHH, name in Kabat numbering, tagless) VHH: EVQLVESGGGVVQPGGSLRLSCAASTFTFSEYDMYWVRQAPGKGLEWVSAISSGGGSTDYADSVKGRFTISRDNSKNTLYLQMNSLRPEDTALYYCAADTLYTDLTWYSYWGQGTLVTVSS
